Source: article PMC8477192, “An ionic lock and a hydrophobic zipper mediate the coupling between an insect pheromone receptor BmOR3 and downstream effectors” (The Journal of Biological Chemistry, 2021)
Where two headings read alike, the source gives them in different places. Blank lines part the entries; values can stand above or below the molecule they belong to.

Assays:
[1] = molecular target: Rluc-BmArr; experiment: intermolecular BRET; settings: read off a plot
[2] = molecular target: T1, YFP-BmOR3 (Bombyx mori, UniProt Q5FBE0 1-439); experiment: intermolecular BRET; settings: bombykal-induced, read off a plot
T1 construct: BmOR3, pheromone (bombykal) receptor of Bombyx mori; also called N-terminal YFP-tagged BmOR3; YFP-WT-BmOR3; source: HEK293, transfected, in living cells; not shown: YFP, N-terminal, kept
T1 sequence (looked up): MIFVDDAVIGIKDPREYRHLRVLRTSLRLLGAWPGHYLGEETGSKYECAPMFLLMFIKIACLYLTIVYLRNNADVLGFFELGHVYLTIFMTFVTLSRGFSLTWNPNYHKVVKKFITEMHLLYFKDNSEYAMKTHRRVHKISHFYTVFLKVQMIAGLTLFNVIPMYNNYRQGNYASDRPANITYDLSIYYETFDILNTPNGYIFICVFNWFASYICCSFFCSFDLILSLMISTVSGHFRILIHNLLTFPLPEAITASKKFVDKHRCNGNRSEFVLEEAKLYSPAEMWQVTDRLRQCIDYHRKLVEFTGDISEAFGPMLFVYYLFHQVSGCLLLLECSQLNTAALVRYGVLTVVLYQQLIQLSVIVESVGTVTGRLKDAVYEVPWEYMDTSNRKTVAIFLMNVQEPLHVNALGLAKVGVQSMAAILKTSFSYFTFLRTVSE

[3] = molecular target: Rluc-BmOrco (Bombyx mori)
[4] = molecular target: YFP-BmOrco (Bombyx mori); experiment: FRET or BRET; intermolecular BRET in living HEK293 cells after bombykal for 5 min (dose response or ΔBRET); Rluc-BmOR3 with YFP-BmOrco, or Rluc-BmOrco with YFP-BmOR3; pretreatment with 100 ng/ml pertussis toxin without significant effect
[5] = molecular target: YFP-BmOrco (Bombyx mori); experiment: FRET or BRET; saturation BRET in living HEK293 cells, no agonist; fixed Rluc donor, increasing YFP acceptor plasmid; coelenterazine h 5 μM; Lyn-YFP as negative control
[6] = molecular target: Rluc-BmOrco; experiment: intermolecular BRET; settings: bombykal-induced, read off a plot
[7] = molecular target: T1, YFP-BmOR3; experiment: FRET or BRET; arrestin recruitment BRET in living HEK293 cells; YFP-BmOR3 (WT or mutant) with Rluc-fused arrestin; bombykal for 10 min; pertussis toxin without effect; enhanced by BmOrco coexpression
[8] = system: BmOR3 and BmOrco; experiment: CalfluxVTN Ca2+ assay (BRET-based calcium sensor); assay type: cell-based, Bombyx mori; settings: HEK293 cells; pretreatment 100 ng/ml
Experimental: HEK293 cells were cotransfected with plasmids encoding WT BmOR3 and BmOrco or their mutants, or AT1R together with CalfluxVTN probe. 24 h after transfection, cells were redistributed into 96-well flat-bottomed microplates. After another 24 h, cells were incubated with conventional buffer with Ca^2+ (135 mM NaCl, 5 mM KCl, 1 mM CaCl2, 5 mM D-glucose, 10 mM Hepes; pH = 7.4) or with Ca^2+-free buffer (135 mM NaCl, 5 mM KCl, 1 mM EGTA, 5 mM D-glucose, 10 mM Hepes; pH = 7.4), and stimulated with different concentrations of Bombykal (or AngII). The BRET ratio between Venus and Nluc was measured before (baseline) and after the addition of the Nluc substrate furimazine (5 μM) using a Mithras LB 940 multimode reader (Berthold Technologies). The BRET signal was calculated as ratio of emission of Venus (530 nm) to Nluc (460 nm). The baseline value was subtracted from the bombykal-stimulated BRET signal to obtain the ΔBRET value.

[9] = molecular target: T2, BmOR3 (Bombyx mori, UniProt Q5FBE0); experiment: Arrestin recruitment BRET assay; assay type: cell-based; settings: HEK293 cells; pretreatment
Experimental: HEK293 cells were transiently cotransfected with the N-terminal YFP-tagged BmOR3 together with N-terminal Rluc-fused β-arrestin-1, β-arrestin-2, or BmArr plasmids. Twenty-four hours after transfection, cells were distributed into a 96-well microplate and incubated for additional 24 h. The cells were stimulated with varying concentrations of bombykal for 10 min, and the BRET signal between YFP (530 nm) and Rluc (485 nm) was measured after the addition of the Rluc substrate coelenterazine h (5 μM) using a Mithras LB 940 multimode reader (Berthold Technologies). The BRET signal was calculated as the ratio of emission of YFP to Rluc.

[10] = molecular target: T2, BmOR3; experiment: Arrestin-kinase BRET assay; assay type: cell-based; settings: HEK293 cells transfected with BmOR3; pretreatment
Experimental: Twenty-four hours after transfection, cells were distributed into a 96-well microplate. After another 24 h, the cells were stimulated with 1 μM bombykal (for BmOR3-transfected cells) or 1 μM AngII for 10 min (for AT1R-transfected cells). BRET between RLuc and YFP was measured using a Mithras LB 940 multimode reader after the addition of the RLuc substrate coelenterazine h (5 μM). The BRET signal was calculated as the ratio of emission of YFP (530 nm) to RLuc (485 nm).

[11] = molecular target: T3, BmOR3–BmOrco (Bombyx mori, UniProt Q5FBE0); experiment: BmOR3–BmOrco intermolecular BRET assay; assay type: cell-based; settings: HEK293 cells; pretreatment 100 ng/ml
T3 sequence (Q5FBE0 1-439): T1 sequence (looked up)
T3 sequence (Q7YT34 1-472 partner): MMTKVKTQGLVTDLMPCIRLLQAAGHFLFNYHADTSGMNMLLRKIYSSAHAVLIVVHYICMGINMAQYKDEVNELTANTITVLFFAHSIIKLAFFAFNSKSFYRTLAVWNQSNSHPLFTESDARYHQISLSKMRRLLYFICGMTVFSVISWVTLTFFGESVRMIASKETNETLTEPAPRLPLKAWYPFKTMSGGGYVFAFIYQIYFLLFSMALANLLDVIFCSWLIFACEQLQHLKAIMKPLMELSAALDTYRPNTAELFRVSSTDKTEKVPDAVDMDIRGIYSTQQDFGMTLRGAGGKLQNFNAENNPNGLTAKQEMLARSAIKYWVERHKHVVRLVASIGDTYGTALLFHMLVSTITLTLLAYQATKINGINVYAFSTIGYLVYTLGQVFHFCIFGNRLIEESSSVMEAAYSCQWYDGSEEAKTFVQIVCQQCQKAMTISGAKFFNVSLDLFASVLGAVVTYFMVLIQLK
Experimental: HEK293 cells were cotransfected with the N-terminal Rluc-tagged WT BmOR3 together with N-terminal YFP-fused BmOrco plasmids or their mutants. Twenty-four hours after transfection, cells were distributed into a 96-well microplate. After another 24 h, the cells were stimulated with different concentrations of bombykal for 5 min. BRET between RLuc and YFP was measured using a Mithras LB 940 multimode reader after the addition of the RLuc substrate coelenterazine h (5 μM). The BRET signal was calculated as the ratio of emission of YFP (530 nm) to RLuc (485 nm). For the saturation BRET between Rluc-BmOrco and YFP-BmOR3, HEK293 cells were transfected with a fixed amount of Rluc-BmOrco and increasing amounts of YFP-BmOR3. The BRET signal between RLuc and YFP was directly measured after the addition of the substrate coelenterazine h (5 μM).

[12] = molecular target: T1, YFP-BmOR3; experiment: FRET or BRET; G protein recruitment BRET in living HEK293 cells; YFP-BmOR3 with Gi-Rluc; increasing bombykal for 2 min; net BRET after subtracting cells with Gi-Rluc only; net BRET also without bombykal; BmOrco coexpression without significant effect; settings: partners not purified
[13] = HEK293 cells, bombykal, parent: est. 0.612
[14] = HEK293 cells, vehicle, parent: est. 0.592
[15] = bombykal-stimulated, parent: est. 0.012
[16] = HEK293 cells, parent: est. 0.027
[17] = HEK293 cells, parent: est. 0.053

Molecule: YFP-BmOR3 (from UniProt Q5FBE0) W286A
response [1, 13]: 0.605 BRET Ratio | response [1, 14]: 0.593 BRET Ratio

Molecule: YFP-BmOR3 (from UniProt Q5FBE0) W209A
response [1, 13]: 0.604 BRET Ratio | response [1, 14]: 0.592 BRET Ratio

Molecule: YFP-BmOR3 (from UniProt Q5FBE0) V394A; L398A
response [6, 17]: 0.041 ΔBRET

Molecule: YFP-BmOR3 (from UniProt Q5FBE0) E403K
response ([6]; parent: est. 0.038): 0 ΔBRET

Molecule: Rluc-BmOrco F427A; I430A
response [2, 16]: 0.031 ΔBRET

Molecule: Rluc-BmOrco Y464A; V467A; L468A; L471A
response [2, 16]: -0.006 ΔBRET | response ([2]; parent: est. 0.015): -0.005 ΔBRET

Molecule: Rluc-BmArr (natural protein)
EC50 of bombykal for the BRET increase (quantity not given) [7]: 90 nM

Molecule: pertussis toxin [PTX]
effect of pretreatment on bombykal-induced complex-regulated calcium influx [8]: no significant effects | effect of pretreatment on bombykal-induced β-arrestin recruitment to BmOR3 [9]: not affected | effect of pretreatment on bombykal-induced association of β-arrestin with ERK, SRC, and AKT [10]: not significantly affected | effect of pretreatment on bombykal-induced BmOR3–BmOrco complex formation [11]: no significant effects

Molecule: YFP-BmOR3 (from UniProt Q5FBE0) T25A; S26A; T42A
response [1, 15]: 0.0024 ΔBRET

B1: Gi3-Rluc (natural protein, UniProt P08754 1-354, looked up)
chain: MGCTLSAEDKAAVERSKMIDRNLREDGEKAAKEVKLLLLGAGESGKSTIVKQMKIIHEDGYSEDECKQYKVVVYSNTIQSIIAIIRAMGRLKIDFGEAARADDARQLFVLAGSAEEGVMTPELAGVIKRLWRDGGVQACFSRSREYQLNDSASYYLNDLDRISQSNYIPTQQDVLRTRVKTTGIVETHFTFKDLYFKMFDVGGQRSERKKWIHCFEGVTAIIFCVALSDYDLVLAEDEEMNRMHESMKLFDSICNNKWFTETSIILFLNKKDLFEEKIKRSPLTICYPEYTGSNTYEEAAAYIQCQFEDLNRRKDTKEIYTHFTCATDTKNVQFVFDAVTDVIIKNNLKECGLY
notes: G protein alpha subunit Gi3 (Gαi3); also called Gαi-Rluc; Rluc-tagged Gi protein; source: HEK293, transfected, in living cells
EC50 of bombykal for the BRET increase [12]: 10.6 ± 2.06 nM

B3: N-terminal Rluc-fused β-arrestin-1 (natural protein, UniProt P49407 1-418, looked up)
chain: MGDKGTRVFKKASPNGKLTVYLGKRDFVDHIDLVDPVDGVVLVDPEYLKERRVYVTLTCAFRYGREDLDVLGLTFRKDLFVANVQSFPPAPEDKKPLTRLQERLIKKLGEHAYPFTFEIPPNLPCSVTLQPGPEDTGKACGVDYEVKAFCAENLEEKIHKRNSVRLVIRKVQYAPERPGPQPTAETTRQFLMSDKPLHLEASLDKEIYYHGEPISVNVHVTNNTNKTVKKIKISVRQYADICLFNTAQYKCPVAMEEADDTVAPSSTFCKVYTLTPFLANNREKRGLALDGKLKHEDTNLASSTLLREGANREILGIIVSYKVKVKLVVSRGGLLGDLASSDVAVELPFTLMHPKPKEEPPHREVPENETPVDTNLIELDTNDDDIVFEDFARQRLKGMKDDKEEEEDGTGSPQLNNR
notes: β-arrestin-1; also called βarr1; source: HEK293, transfected, in living cells; not shown: Rluc, N-terminal, kept
EC50 of bombykal for the BRET increase (quantity not given) ([7]; partners not purified): 91.1 ± 1.61 nM

The next lines start with results.

response [1, 15]: 0.0082 ΔBRET
Molecule: YFP-BmOR3 (from UniProt Q5FBE0) T25A

response [1, 15]: 0.008 ΔBRET
Molecule: YFP-BmOR3 (from UniProt Q5FBE0) S26A

response [2, 16]: 0.005 ΔBRET | response ([2]; parent: est. 0.038): 0 ΔBRET
Molecule: Rluc-BmOrco K437E

response [1, 13]: 0.605 BRET Ratio | response [1, 14]: 0.594 BRET Ratio
Molecule: YFP-BmOR3 (from UniProt Q5FBE0) W103A

bombykal (1 μM)-stimulated Ca2+ response (CalfluxVTN BRET sensor) in HEK293 cells coexpressing BmOR3 and BmOrco, relative to angiotensin II through AT1R (% of the AT1R response) [3]: 70
Molecule: YFP-BmOR3 (from UniProt Q5FBE0 1-439) (receptor)

BRET50 (receptor expression ratio) (receptor expression ratio) [5]: 1
Molecule: Rluc-BmOR3 (receptor)
EC50 of bombykal for the BRET increase [4]: 36 nM

response [6, 17]: 0.042 ΔBRET
Molecule: YFP-BmOR3 (from UniProt Q5FBE0) I396A; M399A

response [6, 17]: 0.041 ΔBRET
Molecule: YFP-BmOR3 (from UniProt Q5FBE0) R391E; K392E

response [1, 13]: 0.603 BRET Ratio | response [1, 14]: 0.59 BRET Ratio
Molecule: YFP-BmOR3 (from UniProt Q5FBE0) W383A

response [1, 15]: 0.0086 ΔBRET
Molecule: YFP-BmOR3 (from UniProt Q5FBE0) T42A

response [6, 17]: 0.003 ΔBRET | response ([6]; parent: est. 0.015): 0.003 ΔBRET
Molecule: YFP-BmOR3 (from UniProt Q5FBE0) F428A; F433A

response [1, 13]: 0.605 BRET Ratio | response [1, 14]: 0.595 BRET Ratio
Molecule: YFP-BmOR3 (from UniProt Q5FBE0) W33A

response [2, 16]: 0.029 ΔBRET
Molecule: Rluc-BmOrco L451A; L458A

response [2, 16]: 0.031 ΔBRET
Molecule: Rluc-BmOrco V428A; V431A

response [6, 17]: 0.04 ΔBRET
Molecule: YFP-BmOR3 (from UniProt Q5FBE0) L410A; L412A

EC50 of bombykal for the BRET increase [12]: 22 ± 3.22 nM
B2: Gi2-Rluc (natural protein, UniProt P04899 1-355, looked up)
chain: MGCTVSAEDKAAAERSKMIDKNLREDGEKAAREVKLLLLGAGESGKSTIVKQMKIIHEDGYSEEECRQYRAVVYSNTIQSIMAIVKAMGNLQIDFADPSRADDARQLFALSCTAEEQGVLPDDLSGVIRRLWADHGVQACFGRSREYQLNDSAAYYLNDLERIAQSDYIPTQQDVLRTRVKTTGIVETHFTFKDLHFKMFDVGGQRSERKKWIHCFEGVTAIIFCVALSAYDLVLAEDEEMNRMHESMKLFDSICNNKWFTDTSIILFLNKKDLFEEKITHSPLTICFPEYTGANKYDEAASYIQSKFEDLNKRKDTKEIYTHFTCATDTKNVQFVFDAVTDVIIKNNLKDCGLF
notes: G protein alpha subunit Gi2 (Gαi2); also called Gαi-Rluc; Rluc-tagged Gi protein; source: HEK293, transfected, in living cells
